Patent publication US20230242902A1, “A HIGHLY ERROR-PRONE […] R[…] FOR TARGETED CONTINUOUS EVOLUTION IN VIVO” (The Regents of the University of California, priority 2017, published 2023)
Where a chain is given by its changes, count along the chain named. Names may count otherwise. “And” between values parts separate entries of the source, which are not always exact repeats. Equal entries are not always repeated.

B1: Y424E: TP-DNAP2 variant (protein, listed as Kluyveromyces lactis)
chain: MNDELAFLNSQIDDYSDDIEFLRTEVFRINRYSKSIYSLMKNSSKEAIKETIEFNKYGQEIHSKIKEKEISLIEAIKLMEKKYKYLRSLNKTKDKSKKKKIHTKDIETLKTIYKTKADFDIRNFKNAETFTYENYSLLIPSEKELIDLIPEIEEDYSYYFYVSLTITGPTIFGGVTRKVPIIDTYGDINKDFYNKIKENITKVLDRVPFYEEKESEIICKKVLITLTVNKWESIDKWYKNVKSKSKKFKDFTLFLASDTSKNCVQQCVEYLGGKWNTNYSLEKMIPQQKIVTYIPLLMDIQYVQSMEDLISDFDEPNTDCKNIARLLKWNGHMGVITKIDKDVKINRIQRKRIIDVENKEVKEVFFDIESFSDETKHQIPYLICWSYLGELYYRTGKNCIKEFVEEILSYNVDIILYAWYGSGEDYQHVLPYMKSKCIKDKYIIKNNMITYGELYYENAIIYLKDPYLFILTSLDKASKAFNVINKGEFPHSIIHSWEDLNKILPNWVKIQKRMIEYKDDNKLNIYYKNIEIFENDRNYNTILENAIEYCKVDVLAMEKVWIKFKKLLEKNLNITVSVKTFTLSQLSMKIMESKLPKYVKLYVPTLEEYSKIRNAIYGGRVISKNGIYEENIVYADVVSLYPSAMKLLKHSYGKPKLVDYIDFEKHGIYRVTLLNKHDQEPKNYLNFVPRRINRKLTWEWFKIHEGWYHTYDLIIAKSEGFDIYCHEGFEYPEKDYIFNDFIDTLYSMKETHTACSCEEQPCPIRMVAKIALNGGGYGKFVQKPIDKEIYIVKRDVVAGECDKLQENENGEICIGKRLVKRPLFYNLDSENYDKMIIEKEDEPIYSTQCGISILSASRYRLYKLCKQFENIDIIYSDTDSIFVKQKSVDWELFKSKCGSELGQLDSTIDDTKNAIISKMYIGGAKMYAFEYLNNKNKLITKLHCKGVPNYMLSLNQFKYLMESPDNTIAYKFEIIRRKLVNVITKDLIKDIKQT
B2: TP-DNAP1-4-1: TP-DNAP1 variant (V574F, I777K, L900S), encoded by SEQ ID NO:10 (protein, listed as Kluyveromyces lactis)
chain: MDYKDKALNDLRNVYADFDSLPLDFRQILIKDRATLLQKEDVEKKILERQEDAKKYAEYLKQSEIPERISLPNIKRHKGVSISFEETSEDMVLEPRPFIFDGLNIRCFRRETIFSLKNKILNMVKESSSFKNVSRQSVSFMYFKIFNKGKVIASTKSVNIYEDKIDERLEDLCNNFDDVLKKIIDVTYGYESLFVSETYSYVIFYAKSIYFPQPRCVNNWGNNIPNILTFDSFKLFTANKNNVSCIKQCSRFLWQKDFNTLEEMIEYKNGNICIVTPQLHINDVRDIKSFNDIRLYSESPIKTFSVIDNTITYLFYFKEHLGVIFNITKSRHDRRVTKFSPLSKFSDVKNITVCFDIESYFDPEKESNQVNIPFICCASIIYNKVIGNIVDFEGRDCVAQMIEYVVDICGELNISSVELIAHNGGGYDFHYILSSMYNPAAIKNILIRNNSFISFNFAHDGVKFSVKDSYSFLLCSLANASKAFLNEETFKKTDFPHHDLKTADDLYKVYKEWSSVNTEINHVVEKEKLLITSEHIVNFTKNDKSKTLIEWSKDYCRNDVLVLSKVWLEFKNAFEDIFNCELVDQTMTLAGLSYKLFQANMPFDVELRHPNKEDYFNMREALIGGRCISVNGIYKDVLCLDVKSLYPASMAFYDQPYGSFKRVSSRPKDELGIYYVRVTPNRNNKSNFFPIRSHNKITYNNFEESTYIAWYTNVDIDIGLSEGHNIEYIPFDSYGNIGYSWSKKGKIFEKYIKDVLYKLKIKYEKQNNKVKRNVIKKIMNSLWGKFAQKWVNFEYFIKSEDDIDFESEEAYKIWDTDFMLIKKIKESTYSSKPIQNGVFTLSWARYHMKSIWDAGAKEGAECIYSDTDSIFVHKEHFKKNAKFMLNGLKVPIIGSEVGQSELECEFDKLLCAGKKQYMGFYTYFQDGKPCIKEKKRFKGIPSNYIIPELYAHLLSGADKEAKIQFLKFRREWGSVKGYIENKTVKAT
B3: L474A: TP-DNAP2 variant (protein)
chain: B2 chain with L474A, F574V, K777I, S900L
B4: Y431H, L640Y, I777K, W814N: TP-DNAP1 variant, encoded by SEQ ID NO:8 (protein, listed as Kluyveromyces lactis)
chain: B2 chain with Y431H, F574V, L640Y, W814N, S900L
B5: L474V: TP-DNAP2 variant (protein)
chain: B2 chain with L474V, F574V, K777I, S900L

Experiments:
Format in all cases: cell-based, S. cerevisiae
p2-encoded leu2* = experiment: p2 leu2* fluctuation tests in GA-Y021 (p2 mutation rate reporter strain); conditions: for Per-base substitution rate pf p2: TP-DNAP2 variant in trans, wt TP-DNAP2 in cis, 36 replicates, (95% C.I.); for Fold increase: p2 substitution rate over no variant in trans
From the text: For fluctuation tests used to measure p2 mutation rates, leu2* served as a marker for detecting mutational events. leu2* is a disabled version of LEU2, where Q180 is replaced with a TAA stop codon. Q180 is a permissive site where mutation to any other codon other than TAG and TGA results in functional reversion to LEU2. These mutational events can be detected by plating scores of parallel cultures on medium lacking leucine and counting the number distribution of functional LEU2 mutants.
For TP-DNAP2 library screening, each library member was subjected to small-scale leu2* fluctuation tests with six replicates. 190 library members from each yeast library transformation were arrayed and inoculated into liquid SC medium lacking uracil and histidine, and passaged three times at 1:10,000 dilutions. mKate2 fluorescence was measured at every passage on a microplate reader (TECAN Infinite® 200 PRO, settings: λex=588, λem=633) to track p2 copy number stabilization. To perform fluctuation tests, each library member was diluted 1:10,000 into liquid SC medium buffered to pH 5.8 and lacking uracil, histidine, tryptophan, and dilutions were split into six 100 μL replicates. Cultures were grown for 48 hours at 30° C. to reach saturation. Saturated cultures were washed with 200 μL 0.9% NaCl to remove residual leucine and resuspended in 35 μL of 0.9% NaCl. 10 μL of this resuspension was spot plated onto solid SC medium buffered to pH 5.8 and lacking uracil, histidine, tryptophan and leucine. Spot plates were allowed to dry and incubated at 30° C. Colonies were counted after 5 days. Colony counts were used to calculate the expected number of LEU2 functional mutants (m), using the p0 method (Foster, 2006, Methods Enzymol, 409:195-213).
To precisely measure p1 and p2 per-base substitution mutation rates, several modifications were made to the small-scale protocol. First, 36 replicates were performed for reconfirmation of candidate TP-DNAP2 mutators, and 48 replicates for genomic and mutual orthogonality experiments. Titers were also determined for each strain after spot plating by pooling the residual volume from 4 replicates and plating dilutions on YPD. The expected number of LEU2 functional mutants (m) was determined by the Ma-Sandri-Sarkar maximum likelihood estimator (as calculated by the FALCOR tool and corrected for partial plating (Foster, 2006, Methods Enzymol, 409:195-213; Sarkar et al., 1992, Genetica, 85:173-179; Hall et al., 2009, Bioinformatics, 25:1564-1565). The mean mKate2 fluorescence was determined from 50,000 event counts on Attune™ NxT Flow Cytometer and converted to p2 copy number by using a calibration curve. To determine per-base substitution rates, the corrected m was normalized to the average cell titer, the p2 copy number, and the target size for functional leu2* reversion (2.33 bp). 95% confidence intervals were similarly scaled.
To identify error-prone TP-DNAP2s, a small library of TP-DNAP2s diversified at locations hypothesized to be responsible for DNAP fidelity was screened. […] Four distinct site-saturation mutagenesis libraries were generated, each diversifying S370, Y424, L474, or F882 in TP-DNAP2 encoded on pGA55-reTP-DNAP2. Due to unsuccessful attempts to generate a strain with a full deletion of p2-encoded TP-DNAP2 and simultaneous integration of mKate, URA3, and leu2*, each library was transformed into GA-Y021 for convenient screening. However, since GA-Y021 still encodes wt TP-DNAP2 on p2-delORF1-mUL*, p2 mutation rates measured in this format are the result of in tandem replication of p2 by wt TP-DNAP2 and each TP-DNAP2 variant encoded in trans. 6-fold coverage of each library was maintained by picking 190 yeast colonies and passaging under selection for URA3 to stabilize the copy number of p2-delORF1-mUL* in the presence of the newly introduced TP-DNAP2 variants. […]

p1-encoded leu2 (Q180*) = experiment: Large-scale p1 fluctuation tests of p1-encoded leu2 (Q180*), per-base substitution rate; conditions: for Mutation rate (s.p.b.): per-base substitution rate, p1-encoded leu2 (Q180*), measurements taken after 90 generations
Summary of the method: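 Yeast OR-Y24 carrying p1-encoded leu2 (Q180*) with individual TP-DNAP1 variants; 36-48 replicates (3-16 for highly error-prone variants), LEU2 revertants scored without leucine. Rates by maximum likelihood, normalized to cells per culture, p1 copy number (flow cytometry) and 2.33 reversion routes.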

p1 = p1 copy number by p1-encoded mKate2 fluorescence; conditions: sustained by TP-DNAP1 variant
Summary of the method: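 Yeast OR-Y24 strains carrying TP-DNAP1 variants were grown to saturation from a 1:10,000 dilution, and p1-encoded mKate2 fluorescence was measured by flow cytometry (ex/em 561/620 nm). Values were converted to copy number via a linear calibration against qPCR of p1-encoded LEU2 versus genomic LEU3, or by plate-reader OD600-normalized fluorescence relative to w.t. TP-DNAP1.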

genomic URA3 gene = experiment: Fluctuation tests of the genomic URA3 gene in the presence of TP-DNAP1 variants; conditions: URA3 locus, strain harbouring p1 and the TP-DNAP1 variant
Description: Fluctuation tests of the genomic URA3 gene were performed to determine genomic per-base substitution rates, as previously described (Ravikumar et al., 2014). Fluctuation data were analyzed by the maximum likelihood method, as described for large-scale p1 fluctuation tests. Phenotypic mutation rates were divided by the target size for loss of function of URA3 via base pair substitution (Lang et al., 2008), to yield per-base substitution rates. 95% confidence intervals were similarly scaled by these factors. All data related to genomic URA3 fluctuation tests are fully described in Table 5.

Molecule | Per-base substitution rate pf p2 (p2-encoded leu2*) | Fold increase (p2-encoded leu2*) | Yeast genomic substitution mutation rate (genomic URA3 gene) | also measured
B1 | 73.3 (55.2-93.3) ×10^−10 | 12.3 | – | –
B2 | – | – | 1.76 × 10^−10 s.p.b. | p1 mutation rate (p1-encoded leu2 (Q180*); p1 replication by TP-DNAP1 variant): ~7×10^−6 s.p.b.; Mutation rate (s.p.b.) (p1-encoded leu2 (Q180*); I777K, L900S): 7.58 × 10^−6 s.p.b. and 6.87 × 10^−6 s.p.b. and 7.71 × 10^−6 s.p.b.; p1 copy number (p1): ~5
B3 | 8.37 (4.80-12.6) ×10^−10 | 1.4 | – | –
B4 | – | – | 2.68 × 10^−10 s.p.b. | Mutation rate (s.p.b.) (p1-encoded leu2 (Q180*)): 2.33 × 10^−6 s.p.b. and 4.29 × 10^−6 s.p.b. and 3.24 × 10^−6 s.p.b.
B5 | 5.76 (2.88-9.33) ×10^−10 | 1.0 | – | –
